This note sets out measurements from patent US20050008648A1 (BOARD OF TRUSTEES OF THE UNIVERSITY OF ILLINOIS, published 2005).

This data set deals with the molecule itself. Put plainly: X-ray crystal structure.

Text: Crystals were transferred to a cryoprotectant solution that in the case of the citrate condition was made of mineral oil (Sigma) while for the crystals grown in PEG it was composed of the mother liquor and 10% (w/v) xylitol-10% (w/v) sucrose. Once the crystals were mounted in loops, they were frozen by directly immersing them in liquid nitrogen. X-ray data were collected at the Advanced Photon Source using the BioCARS beamlines BM-C and BM-D, and the SERCAT beamline ID-22.
Data for the MAD data set were collected to 2.3 Å resolution. A partially built model into the MAD electron density was used to solve the tetragonal crystals. […] The ligands were refined without conformational torsion-angle restraints in order to prevent bias towards a particular ring conformation for the sugars.

B1: Human deoxycytidine kinase (dCK) (enzyme)
chain: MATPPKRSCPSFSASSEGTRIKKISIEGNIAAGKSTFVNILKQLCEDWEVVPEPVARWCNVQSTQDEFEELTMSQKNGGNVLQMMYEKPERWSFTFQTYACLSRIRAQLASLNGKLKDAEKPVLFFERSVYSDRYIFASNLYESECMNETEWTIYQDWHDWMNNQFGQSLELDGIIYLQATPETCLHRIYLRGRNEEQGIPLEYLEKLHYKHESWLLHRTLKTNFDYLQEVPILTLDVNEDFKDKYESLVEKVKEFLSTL
notes: Made in E. coli with a His-tag that was cleaved by thrombin; The selenomethionine-substituted protein was used for MAD phasing; Residues 1 to 19 were not seen in the electron density; Crystallized with dC, ara-C or gemcitabine and ADP; also called human dCK; wild type dCK
As to B1, the binding result is given as “binds”.
